For three substances, stoichiometry N results are on record in PMC7572726.

The target in test [1] is Capnocytophaga granulosa STING (Capnocytophaga granulosa). Briefly: crystal structure.
In test [2] the target is TIR-only construct of SfSTING with the cyclic dinucleotide binding domain removed (ΔCDN) (Sphingobacterium faecium). Briefly: SEC-MALS.
The target in test [3] is SfSTING with the TIR domain removed (ΔTIR) (Sphingobacterium faecium). Put plainly: SEC-MALS.

“Capnocytophaga granulosa STING (from UniProt A0A381HAP5 151-314) (domain or fragment)” had a stoichiometry N in test [1] of 2.

In test [2], “TIR-only construct of SfSTING with the cyclic dinucleotide binding domain removed (ΔCDN) (domain or fragment)” registered a stoichiometry N of 2.

Consider “SfSTING with the TIR domain removed (ΔTIR) (domain or fragment)”, for which the stoichiometry N in test [3] came to 2.
